Laboratory results as given in US20260242485A1 (LEPU BIOPHARMA, published 2026).

Experiments:
[1] = target: T1, human CD16A-158F expressed on CHO-K1 cells (human, UniProt P08637 17-254); assay: flow cytometry, CHO-K1-hCD16A-158F cells, geometric mean
T1 construct: whole, on cells

[2] = target: T2, human GPC3 on HepG2 cells (human, UniProt P51654 25-554); assay: flow cytometry, HepG2 cells (GPC3 positive), geometric mean
T2 construct: whole, on cells; also called GPC3-positive HepG2 cells

[3] = target: T3, human CD16A-158V expressed on CHO-K1 cells (human, UniProt P08637 17-254); assay: flow cytometry, CHO-K1-hCD16A-158V cells, geometric mean
T3 construct: whole, on cells; also called hCD16A-158V; CHO-K1-hCD16A-158V
T3 sequence (P08637 17-254 F176V): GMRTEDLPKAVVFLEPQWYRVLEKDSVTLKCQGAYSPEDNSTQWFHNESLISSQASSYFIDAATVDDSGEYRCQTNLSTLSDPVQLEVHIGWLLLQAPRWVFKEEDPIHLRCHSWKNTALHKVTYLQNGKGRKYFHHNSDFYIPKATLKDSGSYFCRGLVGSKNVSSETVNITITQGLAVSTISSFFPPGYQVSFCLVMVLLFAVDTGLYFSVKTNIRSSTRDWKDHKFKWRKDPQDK

T2 sequence (P51654 25-554 limits assumed): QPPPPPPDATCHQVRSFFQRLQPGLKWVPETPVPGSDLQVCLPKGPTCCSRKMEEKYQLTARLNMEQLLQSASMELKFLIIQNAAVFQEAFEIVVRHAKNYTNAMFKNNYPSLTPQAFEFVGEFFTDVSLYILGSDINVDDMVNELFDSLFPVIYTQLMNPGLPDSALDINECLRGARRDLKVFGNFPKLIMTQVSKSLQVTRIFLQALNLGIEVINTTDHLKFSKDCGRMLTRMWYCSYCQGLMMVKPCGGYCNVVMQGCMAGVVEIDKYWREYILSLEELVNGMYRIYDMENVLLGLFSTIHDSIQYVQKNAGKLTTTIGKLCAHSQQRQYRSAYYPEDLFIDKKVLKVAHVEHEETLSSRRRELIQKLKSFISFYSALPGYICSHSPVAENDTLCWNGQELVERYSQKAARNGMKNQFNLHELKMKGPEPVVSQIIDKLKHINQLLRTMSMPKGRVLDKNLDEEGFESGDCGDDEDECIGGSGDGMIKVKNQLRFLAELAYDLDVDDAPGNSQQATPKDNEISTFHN
T1 sequence (P08637 17-254): as the sequence (P08637 17-254 F176V) above, with V160F counted along it

| EC50 (read off the curve) [1] | EC50 (read off the curve) [2] | EC50 (read off the curve) [3] | Binder |
| --- | --- | --- | --- |
| ~2 nM | ~0.3 nM | ~1 nM | GPC3-45H6E8-z19p1-hIgG1LALAPG (bispecific antibody) heavy chain (anti-GPC3 heavy chain hIgG1 LALAPG, (G4S)4 linker, 45H6E8-z19p1 scFv): QVQLVQSGAEVKKPGASVKVSCKASGYTFTDYEMHWVRQAPGQGLEWMGAIHPGSGGTAYNQKFKGRVTMTRDTSTSTVYMELSSLRSEDTAVYYCARYYSYAYWGQGTLVTVSSASTKGPSVFPLAPSSKSTSGGTAALGCLVKDYFPEPVTVSWNSGALTSGVHTFPAVLQSSGLYSLSSVVTVPSSSLGTQTYICNVNHKPSNTKVDKKVEPKSCDKTHTCPPCPAPEAAGGPSVFLFPPKPKDTLMISRTPEVTCVVVDVSHEDPEVKFNWYVDGVEVHNAKTKPREEQYNSTYRVVSVLTVLHQDWLNGKEYKCKVSNKALGAPIEKTISKAKGQPREPQVYTLPPSREEMTKNQVSLTCLVKGFYPSDIAVEWESNGQPENNYKTTPPVLDSDGSFFLYSKLTVDKSRWQQGNVFSCSVMHEALHNHYTQKSLSLSPGKGGGGSGGGGSGGGGSGGGGSQVQLVQSGAEVKKPGASVKVSCKVSGYTLTDYYMQWVRQAPGKGLEWIGWIDPEQGDTEYAPKFQGRVTMTADTSTDTAYMELSSLRSEDTAVYYCTTGGNYVDWGQGTTVTVSSGGGGSGGGGSGGGGSDIQMTQSPSFLSASVGDRVTITCKASQNVGTAVAWYQQKPGKAPKLLIYSASNRYTGVPDRFSGSGSGTDFTLTISSLQPEDFATYFCQQYSSYPLLTFGQGTRLEIK light chain: DIVMTQTPLSLSVTPGQPASISCRSSQSLVHSNGNTYLQWYLQKPGQSPQLLIYKVSNRFSGVPDRFSGSGSGTDFTLKISRVEAEDVGVYYCFQSIHVPYTFGGGTKLEIKRTVAAPSVFIFPPSDEQLKSGTASVVCLLNNFYPREAKVQWKVDNALQSGNSQESVTEQDSKDSTYSLSSTLTLSKADYEKHKVYACEVTHQGLSSPVTKSFNRGEC |
| ~2 nM | ~0.3 nM | ~1 nM | GPC3-45H6E8-z21p1-hIgG1LALAPG (bispecific antibody) heavy chain (anti-GPC3 heavy chain hIgG1 LALAPG, (G4S)4 linker, 45H6E8-z21p1 scFv): QVQLVQSGAEVKKPGASVKVSCKASGYTFTDYEMHWVRQAPGQGLEWMGAIHPGSGGTAYNQKFKGRVTMTRDTSTSTVYMELSSLRSEDTAVYYCARYYSYAYWGQGTLVTVSSASTKGPSVFPLAPSSKSTSGGTAALGCLVKDYFPEPVTVSWNSGALTSGVHTFPAVLQSSGLYSLSSVVTVPSSSLGTQTYICNVNHKPSNTKVDKKVEPKSCDKTHTCPPCPAPEAAGGPSVFLFPPKPKDTLMISRTPEVTCVVVDVSHEDPEVKFNWYVDGVEVHNAKTKPREEQYNSTYRVVSVLTVLHQDWLNGKEYKCKVSNKALGAPIEKTISKAKGQPREPQVYTLPPSREEMTKNQVSLTCLVKGFYPSDIAVEWESNGQPENNYKTTPPVLDSDGSFFLYSKLTVDKSRWQQGNVFSCSVMHEALHNHYTQKSLSLSPGKGGGGSGGGGSGGGGSGGGGSQVQLVQSGAEVKKPGASVKVSCKVSGYTLTDYYMQWVRQAPGKGLEWMGWIDPEQGDTEYAPKFQGRVTMTADTSTDTAYMELSSLRSEDTAVYYCTTGGNYVDWGQGTTVTVSSGGGGSGGGGSGGGGSDIQMTQSPSFLSASVGDRVTITCKASQNVGTAVAWYQQKPGKAPKLLIYSASNRYTGVPDRFSGSGSGTDFTLTISSLQPEDFATYFCQQYSSYPLLTFGQGTRLEIK light chain: DIVMTQTPLSLSVTPGQPASISCRSSQSLVHSNGNTYLQWYLQKPGQSPQLLIYKVSNRFSGVPDRFSGSGSGTDFTLKISRVEAEDVGVYYCFQSIHVPYTFGGGTKLEIKRTVAAPSVFIFPPSDEQLKSGTASVVCLLNNFYPREAKVQWKVDNALQSGNSQESVTEQDSKDSTYSLSSTLTLSKADYEKHKVYACEVTHQGLSSPVTKSFNRGEC |
